# Tests used:
# [1] = molecular target: bi-paratopic VH27.2/VH31 inhibitor (tetravalent Fc); assay: flow cytometry on cells; MDA-MB-231 cells stained with a titration of binder, 1 hr at 4°C in PBS with 3% BSA; ProtA-647 secondary; EC50 from median fluorescence intensity, sigmoidal 4PL fit; settings: one partner purified
# VH27/T75I/A89V-Fc = assay: BLI; biotinylated ENPP1-Fc antigen loaded on streptavidin biosensors, blocked with 5 uM biotin; binder in solution, 600 s association, 900 s dissociation; TBS, 0.02% TWEEN-20, 0.2% BSA, 200 uM zinc chloride, 2 mM calcium chloride, 75 mM sodium chloride; 1:1 monovalent binding model; settings: both partners purified
# VH27.2-Fc Y102A = assay: as above; settings: both partners purified
# VH27.2-Fc W104F = assay: as above; settings: both partners purified
Binder,binding result [1],Kd (VH27/T75I/A89V-Fc) [nM],Kd (VH27.2-Fc Y102A) [nM],Kd (VH27.2-Fc W104F) [nM]
"native ENPP1 on the cell membrane (natural protein, UniProt P22413 1-925, looked up) MERDGCAGGGSRGGEGGRAPREGPAGNGRDRGRSHAAEAPGDPQAAASLLAPMDVGEEPLEKAARARTAKDPNTYKVLSLVLSVCVLTTILGCIFGLKPSCAKEVKSCKGRCFERTFGNCRCDAACVELGNCCLDYQETCIEPEHIWTCNKFRCGEKRLTRSLCACSDDCKDKGDCCINYSSVCQGEKSWVEEPCESINEPQCPAGFETPPTLLFSLDGFRAEYLHTWGGLLPVISKLKKCGTYTKNMRPVYPTKTFPNHYSIVTGLYPESHGIIDNKMYDPKMNASFSLKSKEKFNPEWYKGEPIWVTAKYQGLKSGTFFWPGSDVEINGIFPDIYKMYNGSVPFEERILAVLQWLQLPKDERPHFYTLYLEEPDSSGHSYGPVSSEVIKALQRVDGMVGMLMDGLKELNLHRCLNLILISDHGMEQGSCKKYIYLNKYLGDVKNIKVIYGPAARLRPSDVPDKYYSFNYEGIARNLSCREPNQHFKPYLKHFLPKRLHFAKSDRIEPLTFYLDPQWQLALNPSERKYCGSGFHGSDNVFSNMQALFVGYGPGFKHGIEADTFENIEVYNLMCDLLNLTPAPNNGTHGSLNHLLKNPVYTPKHPKEVHPLVQCPFTRNPRDNLGCSCNPSILPIEDFQTQFNLTVAEEKIIKHETLPYGRPRVLQKENTICLLSQHQFMSGYSQDILMPLWTSYTVDRNDSFSTEDFSNCLYQDFRIPLSPVHKCSFYKNNTKVSYGFLSPPQLNKNSSGIYSEALLTTNIVPMYQSFQVIWRYFHDTLLRKYAEERNGVNVVSGPVFDFDYDGRCDSLENLRQKRRVIRNQEILIPTHFFIVLTSCKDTSQTPLHCENLDTLAFILPHRTDNSESCVHGKHDSSWVEELLMLHRARITDVEHITGLSFYQQRKEPVSDILKLKTHLPTFSQED",binds,,,
"T256A ENPP1-Fc (human ENPP1 ectodomain, ΔSMB, T256A, C-terminal Fc fusion with AviTag, biotinylated) (Fc fusion, biotin on the AviTag) GEKSWVEEPCESINEPQCPAGFETPPTLLFSLDGFRAEYLHTWGGLLPVISKLKKCGTYTKNMRPVYPTKAFPNHYSIVTGLYPESHGIIDNKMYDPKMNASFSLKSKEKFNPEWYKGEPIWVTAKYQGLKSGTFFWPGSDVEINGIFPDIYKMYNGSVPFEERILAVLQWLQLPKDERPHFYTLYLEEPDSSGHSYGPVSSEVIKALQRVDGMVGMLMDGLKELNLHRCLNLILISDHGMEQGSCKKYIYLNKYLGDVKNIKVIYGPAARLRPSDVPDKYYSFNYEGIARNLSCREPNQHFKPYLKHFLPKRLHFAKSDRIEPLTFYLDPQWQLALNPSERKYCGSGFHGSDNVFSNMQALFVGYGPGFKHGIEADTFENIEVYNLMCDLLNLTPAPNNGTHGSLNHLLKNPVYTPKHPKEVHPLVQCPFTRNPRDNLGCSCNPSILPIEDFQTQFNLTVAEEKIIKHETLPYGRPRVLQKENTICLLSQHQFMSGYSQDILMPLWTSYTVDRNDSFSTEDFSNCLYQDFRIPLSPVHKCSFYKNNTKVSYGFLSPPQLNKNSSGIYSEALLTTNIVPMYQSFQVIWRYFHDTLLRKYAEERNGVNVVSGPVFDFDYDGRCDSLENLRQKRRVIRNQEILIPTHFFIVLTSCKDTSQTPLHCENLDTLAFILPHRTDNSESCVHGKHDSSWVEELLMLHRARITDVEHITGLSFYQQRKEPVSDILKLKTHLPTFSQED",,0.7,111,14.2

# — publication PMC10746542 (Nature chemical biology, 2023)
